18 sequences from the supplement of paper PMC12764529 can be followed below.

± gives the half width of the 95% confidence interval.

A short description of series [1]: folding stability dG unfold from trypsin proteolysis; higher = more stable. A digest of the protocol: (§1)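 Unfolding free energy was derived, per protease or combined, by relating Bayesian-fitted K50 values from sequencing counts to a sequence-predicted unfolded-state K50 and a shared folded-state K50. The underlying digests exposed cysteine-free mini-proteins under 80 residues, in a PA-tagged cDNA display construct, to trypsin and chymotrypsin at 11 threefold-diluted concentrations and to a no-protease condition. A filter kept only designs with AlphaFold2 dimer inter-PAE above 15.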

The nature of series [2]: folding stability dG unfold from chymotrypsin proteolysis; higher = more stable. Summed up: as §1
Series [3] in a line: folding stability dG unfold (combined trypsin and chymotrypsin); higher = more stable. A digest of the protocol: as §1

For the sequence “SAGMTIVVEVPKKDITPEELAKKLEERFGLKVVEIKVEEVEEDKVRVTIRFEETGETLELTAEEIKELLSAG [r5_550_TrROS_Hall]”, the “folding stability dG unfold” value in series [1] was 4.6 ± 0.34 kcal/mol; in series [2], 3.81 ± 0.17 kcal/mol; in series [3], 4.19 ± 0.16 kcal/mol.

Regarding “SAGMTLKEEEFELPDGSRRIRLTFTSEEELAAKLKELGFEKFNPLSPSESVDVTIPPDGVLSESLPKEGSAG [r5_941_JUSTAS]”, the “folding stability dG unfold” value in series [1] was determined as 0.651 ± 0.061 kcal/mol; in series [2], 1.86 ± 0.066 kcal/mol; in series [3], 1.42 ± 0.11 kcal/mol.

“SAGMTLTLELPVPPDMSEEEARALALARVREEVAALSPGGATVTPVAVSVDPETGTVSLEVEVEVPPLASAG [r5_146_JUSTAS]”: the results for the “folding stability dG unfold” value in series [1], in series [2] and in series [3] were 1.17 ± 0.032 kcal/mol, 1.45 ± 0.042 kcal/mol and 1.35 ± 0.037 kcal/mol, respectively.

With “SAGMTLVAVNRETGEVNVIELDPEDPELVTVTYPNGEKETFPLAEIAERLGLPVSLLLNDYDIERIYGSSAG [r5_156_TrMRF]”, the “folding stability dG unfold” value in series [1] amounted to 1.95 ± 0.086 kcal/mol; in series [2], 1.38 ± 0.057 kcal/mol; in series [3], 1.71 ± 0.084 kcal/mol.

As for “SAGMTVSTETTTFTDPAGFETTVTTLTTTHPDGSVTSTPTTTVTAVPVPPPPAPVPVDPANPDNPALLSAGG [r19_12_JUSTAS]”, the “folding stability dG unfold” value in series [1] was 0.461 ± 0.038 kcal/mol; in series [2] it was -0.509 ± 0.095 kcal/mol; in series [3] it was 0.163 ± 0.025 kcal/mol.

Consider “SAGMVATLYDPNLPPVSVGITETVTVPHPEGFTVTVTLSSDGTATVTPSDGSSTTLPDASEVRVTATPASAG [r5_869_JUSTAS]”, for which the “folding stability dG unfold” value in series [1] came to 1.31 ± 0.035 kcal/mol; in series [2], 0.921 ± 0.021 kcal/mol; in series [3], 1.1 ± 0.044 kcal/mol.

For “SAGMVEVLEEKTDPNSDLVTVTLYAPDVPDGFRVVVYPKDGVPIEISIKRGEEVVLKLPANVEKIEFIGSAG [r14_671_JUSTAS]”, the figures for the “folding stability dG unfold” value in series [1], in series [2] and in series [3] were 2.55 ± 0.083 kcal/mol, 2.41 ± 0.044 kcal/mol and 2.51 ± 0.092 kcal/mol, respectively.

Turning to “SAGMVEVTVTIIPKKVKDKWVNEAVVSITVPGGPTSTITMPFGSKEEAIKYLKEKGLEVSEENVSVEIESAG [r5_233_JUSTAS]”, the entries for the “folding stability dG unfold” value in series [1], in series [2] and in series [3] were 2.31 ± 0.12 kcal/mol, 3.395 ± 0.028 kcal/mol and 3.23 ± 0.097 kcal/mol, respectively.

Turning to “SAGMVIELKTEEEAKAKAEEIAKKNPEANVTLVVTDPETGVKTVIPVKIESPKPKPEFDKKNGKYKDKGSAG [r5_870_JUSTAS]”, the “folding stability dG unfold” value in series [1] was -0.126 ± 0.2 kcal/mol; in series [2], -0.455 ± 0.45 kcal/mol; in series [3], -0.0134 ± 0.35 kcal/mol.

“SAGMVIKVKVKNKDGEELELVIEIPEEELPEELTEEELKELAKKLAEELAKEGKVEVVEVEIVEPEELSAGG [r19_27_TrROS_Hall]”: the entries for the “folding stability dG unfold” value in series [1], in series [2] and in series [3] were 2.39 ± 0.26 kcal/mol, 1.8 ± 0.13 kcal/mol and 2.03 ± 0.25 kcal/mol, respectively.

For the sequence “SAGMVIPILLKPEPERPEEVEKKAIEFANKLKPLNLPNVKIKVYRAPYVDPETGKTTVLYLVLIEVEPPSAG [r5_49_TrMRF]”, the “folding stability dG unfold” value in series [1] turned out to be 1.83 ± 0.1 kcal/mol; in series [2], 2.79 ± 0.13 kcal/mol; in series [3], 2.4 ± 0.19 kcal/mol.

With “SAGMVITVPSDVPVEELLELARELARELGGGRVEVRTHPDNPEIVTATIDIPGTGKRILIINAPPGVLASAG [r5_912_TrMRF]”, the “folding stability dG unfold” value in series [1] was 2.66 ± 0.038 kcal/mol; in series [2], 2.37 ± 0.028 kcal/mol; in series [3], 2.52 ± 0.048 kcal/mol.

On to “SAGMVIVDPKTKKKITFDKESGEIYIEVDGKKKKIKLKPGEKVEIEIIEKDGKLIIKIKANGKIIEIEPSAG [r5_858_TrROS_Hall]”, for which the “folding stability dG unfold” value was determined as 1.56 ± 0.17 kcal/mol in series [1], 2.09 ± 0.12 kcal/mol in series [2] and 1.75 ± 0.2 kcal/mol in series [3].

Regarding “SAGMVKAKLKVIPVTVDGKPKLYVKVELEIPGGPKFELVFETGSPEKAKELLEKLGLKVKDEDIEIEESSAG [r5_233_TrMRF]”, the results for the “folding stability dG unfold” value in series [1], in series [2] and in series [3] were 2.83 ± 0.11 kcal/mol, 3.69 ± 0.14 kcal/mol and 3.34 ± 0.18 kcal/mol, respectively.

Take “SAGMVKITVPSSVGPVDPSKALTFEKDDTRYILVPGEVAKEIEEKYPDLPIEIEPMSEEEAEKILKELSAGG [r19_271_JUSTAS]”: the “folding stability dG unfold” value in series [1] is -0.0536 ± 0.2 kcal/mol; in series [2], 0.624 ± 0.16 kcal/mol; in series [3], 0.258 ± 0.41 kcal/mol.

As to “SAGMVLEYEGVDEEEKLLARAEELRAELRARHPRVRVELEVEVKPTPGNKYRYRVTLTIEPLAPDEARASAG [r5_936_JUSTAS]”, the “folding stability dG unfold” value in series [1] is 1.75 ± 0.11 kcal/mol; in series [2], 2.09 ± 0.11 kcal/mol; in series [3], 1.99 ± 0.15 kcal/mol.

“SAGMVRIETYTHPDGTLRLVVYRPETGERAVFEFPLEDPEKFREAVEELAERLREEGFPVEVDIRPTLPSAG [r5_815_TrMRF]”: the results for the “folding stability dG unfold” value in series [1], in series [2] and in series [3] were 3 ± 0.086 kcal/mol, 4.296 ± 0.023 kcal/mol and 3.97 ± 0.049 kcal/mol, respectively.

In the case of “SAGMVTLRVKLKDGRELEIQLASEEEIESLPPGAKVIPIPAESEEEALEAAARLLAEEEGLEIEEVEKVSAG [r5_119_TrROS_Hall]”, the “folding stability dG unfold” value amounted to 0.671 ± 0.022 kcal/mol in series [1], 0.564 ± 0.074 kcal/mol in series [2] and 0.638 ± 0.049 kcal/mol in series [3].
